In publication doi:10.1101/519959:

Target: T1, DBINO domain of dIno80 (Drosophila melanogaster, UniProt Q9VDY1 228-484)
T1 sequence: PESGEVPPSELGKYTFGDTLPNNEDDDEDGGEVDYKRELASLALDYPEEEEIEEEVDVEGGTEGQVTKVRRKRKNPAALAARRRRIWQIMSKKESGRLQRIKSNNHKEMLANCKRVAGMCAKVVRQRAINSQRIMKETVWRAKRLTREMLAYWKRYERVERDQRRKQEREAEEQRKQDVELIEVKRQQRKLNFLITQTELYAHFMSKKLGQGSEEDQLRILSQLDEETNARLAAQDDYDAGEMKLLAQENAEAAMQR
Assay: fluorescent intercalator displacement

B1: Hs.con (3 copies of Ino80 motif, 33-mer) (dsDNA)
DNA 1: CCCCGTCAGCCCCCCGTCAGCCCCCCGTCAGCC
DNA 2: GGCTGACGGGGGGCTGACGGGGGGCTGACGGGG
Kd: 10 µM
